According to publication PMC4635314, “Insights into Collagen Uptake by C-type Mannose Receptors from the Crystal Structure of Endo180 Domains 1–4” (Structure(London, England:1993), 2015):

Key:
[1] = biological target: T1, type I collagen (native, triple-helical; rat tail) (rat, UniProt P02454 152-1207; P02466 86-1125); assay: ELISA; solid-phase binding assay: collagen or gelatin coated at 10 μg/ml on Nunc MaxiSorp plates; Fc-tagged Endo180 proteins in PBS with 0.1 mg/ml κ-casein and 0.05% Tween 20 added for 2 hr (titration, or fixed 1 μM in Figure 6A); detected with anti-human IgG-HRP, 492 nm; single-site fit; conditions: both partners purified
T1 construct: collagen alpha-1(I) chain, rat; collagen alpha-2(I) chain, rat; also called native collagen; rat-tail type I collagen; source: bought: Sigma (rat-tail type I collagen)

[2] = biological target: T2, gelatin (heat-denatured rat-tail type I collagen) (rat, UniProt P02454 152-1207; P02466 86-1125); assay: as above; conditions: both partners purified
T2 construct: collagen alpha-1(I) chain, rat, heat-denatured; collagen alpha-2(I) chain, rat, heat-denatured; Same chains as m3 but denatured (unfolded single chains) before coating or coupling; also called denatured collagen; source: bought: Sigma (rat-tail type I collagen), 1 mg/ml in 100 mM acetic acid heated to 67°C for 30 min
T2 sequence (P02454 152-1207, chain 1 of 2): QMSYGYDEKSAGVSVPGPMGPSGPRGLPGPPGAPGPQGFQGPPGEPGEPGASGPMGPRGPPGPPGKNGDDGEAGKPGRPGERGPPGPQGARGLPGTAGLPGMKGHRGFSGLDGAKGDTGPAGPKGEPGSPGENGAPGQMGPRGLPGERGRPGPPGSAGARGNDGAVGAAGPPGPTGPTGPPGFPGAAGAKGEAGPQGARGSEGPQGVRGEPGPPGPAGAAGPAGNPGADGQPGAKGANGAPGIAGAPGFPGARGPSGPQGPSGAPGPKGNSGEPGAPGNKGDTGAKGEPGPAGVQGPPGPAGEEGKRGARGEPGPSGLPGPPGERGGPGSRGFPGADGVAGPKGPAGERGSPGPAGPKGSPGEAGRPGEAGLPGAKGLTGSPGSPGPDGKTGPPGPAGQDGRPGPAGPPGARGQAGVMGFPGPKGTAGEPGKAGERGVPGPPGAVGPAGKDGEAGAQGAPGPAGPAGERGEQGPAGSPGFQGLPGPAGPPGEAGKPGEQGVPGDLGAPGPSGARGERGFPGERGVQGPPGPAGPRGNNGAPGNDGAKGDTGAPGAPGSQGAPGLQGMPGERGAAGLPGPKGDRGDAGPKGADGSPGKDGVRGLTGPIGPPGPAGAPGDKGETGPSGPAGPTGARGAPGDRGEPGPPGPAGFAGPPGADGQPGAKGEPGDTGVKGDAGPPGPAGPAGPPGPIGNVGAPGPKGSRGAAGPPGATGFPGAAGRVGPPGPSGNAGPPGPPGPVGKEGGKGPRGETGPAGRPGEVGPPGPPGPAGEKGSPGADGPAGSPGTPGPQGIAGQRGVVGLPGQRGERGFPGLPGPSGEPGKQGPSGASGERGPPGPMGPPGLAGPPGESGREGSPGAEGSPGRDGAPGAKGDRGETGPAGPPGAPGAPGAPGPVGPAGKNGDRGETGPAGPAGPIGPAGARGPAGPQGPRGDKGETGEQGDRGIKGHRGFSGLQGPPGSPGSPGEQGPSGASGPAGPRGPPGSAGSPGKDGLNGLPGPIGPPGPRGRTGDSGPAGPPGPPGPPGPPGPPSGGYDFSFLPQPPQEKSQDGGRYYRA
T2 sequence (P02466 86-1125, chain 2 of 2): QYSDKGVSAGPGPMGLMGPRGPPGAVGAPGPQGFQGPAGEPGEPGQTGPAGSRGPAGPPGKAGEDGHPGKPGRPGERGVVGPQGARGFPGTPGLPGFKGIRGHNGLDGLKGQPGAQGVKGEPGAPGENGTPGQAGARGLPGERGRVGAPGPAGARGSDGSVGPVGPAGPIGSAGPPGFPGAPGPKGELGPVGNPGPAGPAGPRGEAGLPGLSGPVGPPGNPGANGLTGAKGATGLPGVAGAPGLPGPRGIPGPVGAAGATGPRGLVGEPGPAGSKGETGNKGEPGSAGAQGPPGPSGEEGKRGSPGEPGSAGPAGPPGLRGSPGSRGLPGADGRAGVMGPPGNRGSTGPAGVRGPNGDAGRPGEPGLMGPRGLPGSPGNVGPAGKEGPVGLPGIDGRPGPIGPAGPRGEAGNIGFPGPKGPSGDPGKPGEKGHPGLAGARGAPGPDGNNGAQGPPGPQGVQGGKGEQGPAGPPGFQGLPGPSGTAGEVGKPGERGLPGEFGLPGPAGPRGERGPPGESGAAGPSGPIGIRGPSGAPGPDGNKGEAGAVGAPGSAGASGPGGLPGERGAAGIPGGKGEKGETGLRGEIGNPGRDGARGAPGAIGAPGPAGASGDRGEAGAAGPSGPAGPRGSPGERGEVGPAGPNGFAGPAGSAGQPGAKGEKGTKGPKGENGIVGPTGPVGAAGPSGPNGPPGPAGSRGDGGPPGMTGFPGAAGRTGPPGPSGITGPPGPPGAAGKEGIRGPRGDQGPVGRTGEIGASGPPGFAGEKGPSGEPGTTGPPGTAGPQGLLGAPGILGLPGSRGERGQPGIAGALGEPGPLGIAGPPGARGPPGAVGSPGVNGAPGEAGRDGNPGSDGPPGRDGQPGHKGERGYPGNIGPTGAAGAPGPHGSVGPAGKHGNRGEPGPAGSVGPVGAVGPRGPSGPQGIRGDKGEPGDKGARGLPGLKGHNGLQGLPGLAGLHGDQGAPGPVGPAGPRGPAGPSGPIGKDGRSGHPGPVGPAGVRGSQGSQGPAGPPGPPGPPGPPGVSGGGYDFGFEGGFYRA

T1 sequence (P02454 152-1207, chain 1 of 2): as the sequence (P02454 152-1207, chain 1 of 2) above
T1 sequence (P02466 86-1125, chain 2 of 2): as the sequence (P02466 86-1125, chain 2 of 2) above

| Kd [1] | Kd [2] | Binder |
| --- | --- | --- |
| 3700 ± 430 nM | 2200 ± 150 nM | Endo180 D3-4-Fc (Fc fusion, human, Endo180 (uPARAP), human, domains 3-4 (CTL1, CTL2), residues 231-513 of UniProt Q9UBG0; also called D3-4-Fc construct; source: HEK293 c18, transfected, secreted into serum-free medium, purified (protein A); not shown: Fc (IgG2), C-terminal, kept) APLAKSNDCETFWDKDQLTDSCYQFNFQSTLSWREAWASCEQQGADLLSITEIHEQTYINGLLTGYSSTLWIGLNDLDTSGGWQWSDNSPLKYLNWESDQPDNPSEENCGVIRTESSGGWQNRDCSIALPYVCKKKPNATAEPTPPDRWANVKVECEPSWQPFQGHCYRLQAEKRSWQESKKACLRGGGDLVSIHSMAELEFITKQIKQEVEELWIGLNDLKLQMNFEWSDGSLVSFTHWHPFEPNNFRDSLEDCVTIWGPEGRWNDSPCNQSLPSICKKAGQLSQG |
| 2500 ± 250 nM | 420 ± 30 nM | Endo180 D1-4-Fc (dimeric Fc-tagged Endo180 domains 1-4) (Fc fusion, natively glycosylated (predicted N-linked sites Asn69, Asn102, Asn140, Asn364, Asn497)) APLADAALPEPNVFLIFSHGLQGCLEAQGGQVRVTPACNTSLPAQRWKWVSRNRLFNLGTMQCLGTGWPGTNTTASLGMYECDREALNLRWHCRTLGDQLSLLLGARTSNISKPGTLERGDQTRSGQWRIYGSEEDLCALPYHEVYTIQGNSHGKPCTIPFKYDNQWFHGCTSTGREDGHLWCATTQDYGKDERWGFCPIKSNDCETFWDKDQLTDSCYQFNFQSTLSWREAWASCEQQGADLLSITEIHEQTYINGLLTGYSSTLWIGLNDLDTSGGWQWSDNSPLKYLNWESDQPDNPSEENCGVIRTESSGGWQNRDCSIALPYVCKKKPNATAEPTPPDRWANVKVECEPSWQPFQGHCYRLQAEKRSWQESKKACLRGGGDLVSIHSMAELEFITKQIKQEVEELWIGLNDLKLQMNFEWSDGSLVSFTHWHPFEPNNFRDSLEDCVTIWGPEGRWNDSPCNQSLPSICKKAGQLSQG |
